Reference: PMC3168688 (American journal of medical genetics. Part B, …, 2011)

Target: T1, c-Myc-tagged SLC9A9 C-terminal with both mutations (V512G and K534R) (rat, UniProt D4A7H1 494-644, V512G | K534R)
T1 sequence (looked up): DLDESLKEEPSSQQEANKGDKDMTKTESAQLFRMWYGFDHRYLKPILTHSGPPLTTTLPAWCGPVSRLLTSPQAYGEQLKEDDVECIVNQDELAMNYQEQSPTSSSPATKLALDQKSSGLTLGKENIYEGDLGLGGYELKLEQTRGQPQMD
Test: co-IP

B1: Flag-tagged calcineurin homologous protein (CHP) (natural protein, rat, UniProt P61023 1-195, looked up)
chain: MGSRASTLLRDEELEEIKKETGFSHSQITRLYSRFTSLDKGENGTLSREDFQRIPELAINPLGDRIINAFFSEGEDQVNFRGFMRTLAHFRPIEDNEKSKDVNGPEPLNSRSNKLHFAFRLYDLDKDDKISRDELLQVLRMMVGVNISDEQLGSIADRTIQEADQDGDSAISFTEFVKVLEKVDVEQKMSIRFLH
fold change of CHP co-precipitated against wild-type SLC9A9 C-terminal: ~2 fold
